Earlier results, collected in article PMC12655228.

Biological target: HER2 (Homo sapiens) (UniProt P04626)

For Trastuzumab, the Kd is given as 0.1 nM.
